The text below walks through data of patent US20230272051A1 (CENTIVAX, published 2023).

Substitutions are numbered along the chain they refer to.

The chains are these.
B1: COVID19_P13_G12 (scFv, V domains shown)
VH: QVQLVQSGAEVKKPGSSVKVSCKASGYTFINYEIHWVRQAPGQGLEWMGGITPIFGTANYAQKFQGRVTITADESTSTAYMELSSLRSEDTAVYYCARDTVMGGMDVWGQGTLVTVSS
VL: SSYVLTQPPSVSVAPGKTARITCGGNNIGSKSVHWYQQKPGQAPVLVIYYDSDRPSGIPERFSGSNSGNTATLTISRVEAGDEADYYCQVWDSSSDYVFGGGTKLTVLA
B2: COVID19_P14_D11 (scFv, V domains shown)
VH: QVQLVQSGAEVKKPGSSVKVSCKASGYTFNRFAMTWVRQAPGQGLEWMGTINPSGGSTIYTQRFQGRVTITADESTSTAYMELSSLRSEDTAVYYCGHDTVMGGMGEWGQGTLVTVSS
VL: B1 VL with V90S, W91T
B3: COVID19_P13_C07 (scFv, V domains shown)
VH: QVQLVQSGAEVKKPGSSVKVSCKASGGTFSRYDINWVRQAPGQGLEWMGIINPSGGSTTYAQKFQGRVTITADESTSTAYMELSSLRSEDTAVYYCAHDTVMGGMDVWGQGTLVTVSS
VL: B1 VL with D96Y
B4: COVID19_P01_E12 (scFv, V domains shown)
VH: QVQLVQSGAEVKKPGSSVKVSCKASGYTFTTYDINWVRQAPGQGLEWMGWINPNSGGTNYAQKFQGRVTITADESTSTAYMELSSLRSEDTAVYYCARDTYWGGMDVWGQGTLVTVSS
VL: B1 VL with Y50D, D96F
B5: COVID19_P02_C07 (scFv, V domains shown)
VH: B1 VH with I30S, N31S, E33Y, T52I, T57E, N59E, Q62H, R98M, D99E
VL: B1 VL
B6: COVID19_P13_A08 (scFv, V domains shown)
VH: B1 VH with E33D, H35N
VL: B1 VL with S94R
B7: COVID19_P01_B06 (scFv, V domains shown)
VH: QVQLVQSGAEVKKPGSSVKVSCKASGYTFSAYYMHWVRQAPGQGLEWMGGITPLFGTPSYAQKFQGRVTITADESTSTAYMELSSLRSEDTAVYYCALETVMGGVGVWGQGTLVTVSS
VL: B1 VL with G81V
B8: COVID19_P14_C12 (scFv, V domains shown)
VH: B4 VH with W50I, N52D, N54I, S55G, G57T, Y101V, W102G, G103F
VL: B1 VL with Y50D, D96L
B9: COVID19_P13_D01 (scFv, V domains shown)
VH: B1 VH with I30S, N31D, Y32F, E33D, H35N, T52I, A97G, R98M, D106T, V107S
VL: B1 VL with S95H
B10: COVID19_P13_B12 (scFv, V domains shown)
VH: B1 VH with I30T, N31D, Y32F, E33H, I34M, T52I, R98L, D99E
VL: B1 VL
B11: COVID19_P14_E07 (scFv, V domains shown)
VH: B1 VH with E33D, H35N
VL: B1 VL with S94H
B12: COVID19_P14_G01 (scFv, V domains shown)
VH: B1 VH with T28N, E33Y, I34L, T57I, D99E
VL: B1 VL with N27K, S94G
B13: COVID19_P13_H02 (scFv, V domains shown)
VH: B1 VH with I30T, N31G, Y32F, E33Y, I34M, H35Q, F55L, D99E, T100I
VL: B1 VL with V90S
B14: COVID19_P01_C09 (scFv, V domains shown)
VH: B1 VH with I30T, N31S, Y32F, E33D, T52I, R98Y, D99E
VL: B1 VL with D96Y
B15: COVID19_P14_D07 (scFv, V domains shown)
VH: B1 VH with I30S, N31S, Y32F, E33Y, T52I, T57E, N59E, Q62H, R98M, D99E
VL: B1 VL
B16: COVID19_P01_E06 (scFv, V domains shown)
VH: QVQLVQSGAEVKKPGSSVKVSCKASGCTFTRFTMHWVRQAPGQGLEWMGGITPIFGITNYAQKFQGRVTITADESTSTAYMELSSLRSEDTAVYYCAHDTVMGGMEEWGQGTLVTVSS
VL: B1 VL with S95N
B17: COVID19_P14_F08 (scFv, V domains shown)
VH: B1 VH with I30T, N31A, Y32F, E33Y, T52I, F55S, V68A, D99E, T100V
VL: B1 VL with S94T
B18: COVID19_P02_H04 (scFv, V domains shown)
VH: B1 VH with I30S, N31S, Y32F, E33H, H35N, T57I, R98L, D99E
VL: B1 VL with V90S, S95G
B19: COVID19_P02_D10 (scFv, V domains shown)
VH: B1 VH with T28M, I30T, N31E, Y32F, E33Y, I34M, T52I, I54V, F55S, D99E
VL: B1 VL
B20: COVID19_P01_G05 (scFv, V domains shown)
VH: B1 VH with I30T, N31D, Y32F, E33Y, T52I, R98L, D99E
VL: B1 VL with D96H
B21: COVID19_P14_C01 (scFv, V domains shown)
VH: B1 VH with I30S, N31D, Y32F, E33Y, I34L, R98M, D99E
VL: B1 VL
B22: COVID19_P13_D11 (scFv, V domains shown)
VH: B1 VH with T28S, I30N, N31A, Y32F, E33Y, T52I, R98L, D99E
VL: B1 VL with S93G
B23: COVID19_P14_E01 (scFv, V domains shown)
VH: B1 VH with I30T, N31S, E33Y, I34M, R98V, D99E, D106Q, V107M
VL: B1 VL
B24: COVID19_P14_B08 (scFv, V domains shown)
VH: B7 VH with S30T, A31S, M34V, T52L, L54I, F55L, S59H, V105M, G106T, V107A
VL: B1 VL
B25: COVID19_P01_H04 (scFv, V domains shown)
VH: B1 VH with T28P, I30S, N31S, H35N, R98D, D99E
VL: B1 VL with S95N

One experiment has as its target T1, SARS-CoV-2 Receptor Binding Domain (RBD) protein (SARS-CoV-2, UniProt P0DTC2 319-541).
T1 construct: also called Sars-Cov-2 (COV2)
The experiment in a line: SPR (Carterra LSA); scFv captured by anti-V5, RBD as analyte.
Consider B1, for which the Kd (as a rule, the equilibrium constant for the complex coming apart) was 6.48 nM; the koff (commonly the first-order rate constant of dissociation) was 0.00088 s⁻¹; the kon (as a rule, a measure of how fast the partners come together) is 140000 M⁻¹ s⁻¹.

As for B2, binding was put at a Kd of 48.2 nM, the koff turned out to be 0.00987 s⁻¹ and the kon stood at 205000 M⁻¹ s⁻¹.

In turn, B3 registered a Kd of 41.5 nM, a koff of 0.0095 s⁻¹ and a kon of 230000 M⁻¹ s⁻¹.

B4 gave a Kd of 32.5 nM, a koff of 0.0108 s⁻¹ and a kon of 331000 M⁻¹ s⁻¹.

Molecule B5 came in with a Kd of 4.34 nM, a koff of 0.00279 s⁻¹ and a kon of 642000 M⁻¹ s⁻¹.

As to B6, the Kd was determined as 10 nM, the koff stood at 0.00046 s⁻¹ and the kon was 46000 M⁻¹ s⁻¹.

In turn, B7 came in with a Kd of 28 nM, a koff of 0.0122 s⁻¹ and a kon of 437000 M⁻¹ s⁻¹.

Turning to B8, the affinity, expressed as Kd, was 7.8 nM; the koff is 0.000725 s⁻¹; the kon turned out to be 93000 M⁻¹ s⁻¹.

For B9, the Kd was found to be 3.14 nM, the koff came to 0.00035 s⁻¹ and the kon turned out to be 110000 M⁻¹ s⁻¹.

B10: the Kd is 32.7 nM, the koff stood at 0.0049 s⁻¹ and the kon stood at 150000 M⁻¹ s⁻¹.

In the case of B11, the Kd was 5.67 nM, the koff is 0.000778 s⁻¹ and the kon is 137000 M⁻¹ s⁻¹.

B12 displayed a dissociation constant (Kd) of 8.45 nM, a koff of 0.000842 s⁻¹ and a kon of 99700 M⁻¹ s⁻¹.

B13 yielded a Kd of 40.6 nM, a koff of 0.0084 s⁻¹ and a kon of 210000 M⁻¹ s⁻¹.

B14 came in with a Kd of 18.2 nM, a koff of 0.0097 s⁻¹ and a kon of 532000 M⁻¹ s⁻¹.

The molecule B15 yielded a Kd of 6.08 nM, a koff of 0.00232 s⁻¹ and a kon of 381000 M⁻¹ s⁻¹.

B16 came in with a Kd of 48.7 nM, a koff of 0.0118 s⁻¹ and a kon of 242000 M⁻¹ s⁻¹.

For B17, the Kd stood at 25 nM, the koff came to 0.00283 s⁻¹ and the kon is 113000 M⁻¹ s⁻¹.

The molecule B18 displayed a Kd of 31.9 nM, a koff of 0.00781 s⁻¹ and a kon of 245000 M⁻¹ s⁻¹.

With B19, the Kd amounted to 26.4 nM, the koff was found to be 0.0029 s⁻¹ and the kon turned out to be 110000 M⁻¹ s⁻¹.

Take B20: the Kd was found to be 2.89 nM, the koff stood at 0.00123 s⁻¹ and the kon stood at 427000 M⁻¹ s⁻¹.

The molecule B21 showed a Kd of 12.1 nM, a koff of 0.00191 s⁻¹ and a kon of 158000 M⁻¹ s⁻¹.

As to B22, binding was put at a Kd of 35 nM, the koff was found to be 0.011 s⁻¹ and the kon is 310000 M⁻¹ s⁻¹.

For the molecule B23, the affinity, expressed as Kd, was 10.7 nM; the koff came to 0.000819 s⁻¹; the kon worked out at 76800 M⁻¹ s⁻¹.

Molecule B24 yielded a Kd of 30.8 nM, a koff of 0.0115 s⁻¹ and a kon of 374000 M⁻¹ s⁻¹.

Molecule B25 had a Kd of 0.95 nM, a koff of 0.00056 s⁻¹ and a kon of 590000 M⁻¹ s⁻¹.

Another experiment deals with T1, SARS-CoV-2 Receptor Binding Domain …. Briefly: SPR (Carterra LSA).
Take B1: the Kd was less than 50 nM.

With B5, the Kd is less than 50 nM.

The molecule B6 showed a Kd of less than 50 nM.

B7 gave a Kd of less than 50 nM.

In the case of B9, the Kd is less than 50 nM.

As to B10, the Kd is less than 50 nM.

The molecule B11 showed a Kd of less than 50 nM.

B12 had a Kd of less than 50 nM.

For B13, the Kd is less than 50 nM.

With B14, the Kd was less than 50 nM.

Take B15: the Kd was less than 50 nM.

B17 gave a Kd of less than 50 nM.

B19 returned a Kd of less than 50 nM.

As for B20, the Kd is less than 50 nM.

B21 had a Kd of less than 50 nM.

Take B22: the Kd was less than 50 nM.

As to B23, the Kd is less than 50 nM.

Consider B24, for which the Kd is less than 50 nM.

Molecule B25 had a Kd of less than 50 nM.
